Assay [1] deals with T1, human CCR6 (human, UniProt P51684 1-374).
T1 construct: also called hCCR6; CD196
T1 sequence: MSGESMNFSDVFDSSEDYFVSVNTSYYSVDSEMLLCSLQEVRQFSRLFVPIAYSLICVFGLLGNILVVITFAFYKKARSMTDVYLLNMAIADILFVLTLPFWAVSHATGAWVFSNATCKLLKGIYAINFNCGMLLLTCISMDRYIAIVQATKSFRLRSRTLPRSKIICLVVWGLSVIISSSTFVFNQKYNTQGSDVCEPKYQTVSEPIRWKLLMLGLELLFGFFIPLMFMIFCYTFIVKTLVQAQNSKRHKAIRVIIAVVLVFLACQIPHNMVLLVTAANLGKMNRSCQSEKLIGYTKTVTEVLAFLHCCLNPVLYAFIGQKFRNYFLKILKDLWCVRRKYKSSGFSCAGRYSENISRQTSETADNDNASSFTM
In words: FACS binding assay on hCCR6 L1.2 cells, PE-conjugated anti-human Fc detection; 1-21/WT mutant. The procedure:
(§1) Binding characteristics of hAB6 and mutants hAB6-IgG1 to human CCR6 was performed using a FACS binding assay using cell line expressing human CCR6 (L1.2 human CCR6). Approximately 2.5 10⁵ hCCR6 L1.2 cells/test were washed with FACS binding buffer (FBB) (PBS, 0.5% BSA, 0.1% NaN3 (pH 7.4)), and stained with hAB6 or hAB6 mutants (4.4 μg/ml) and serial 3-fold dilutions of antibodies. After 1 h on ice, the cells were washed with FBB (pH 7.4) and with an anti-human Fc antibody PE-conjugated (Jackson ImmunoResearch). After 30 min on ice, the cells were washed 3 times with FBB (pH 7.4), and resuspended in 1% formaldehyde, and analyzed using a FACS LSR flow cytometer (BD Immunocytometry Systems). EC₅₀ values were calculated using GraphPad Prism.
A general note: A flow cytometer gives signals particle by particle.

Assay [2] addresses T1, human CCR6. The assay can be described thus: FACS binding assay on hCCR6 L1.2 cells, PE-conjugated anti-human Fc detection; hAB6 (WT/WT). On the procedure: as §1
Assay [3] addresses T1, human CCR6. The assay can be described thus: FACS binding assay on hCCR6 L1.2 cells, PE-conjugated anti-human Fc detection; 1-23/3-3 mutant. On the procedure: as §1
In assay [4] the target is T1, human CCR6. In words: FACS binding assay on hCCR6 L1.2 cells, PE-conjugated anti-human Fc detection; WT/3-3 mutant. On the procedure:
as §1

Assay [5] has as its target T1, human CCR6. The assay can be described thus: FACS binding assay on hCCR6 L1.2 cells, PE-conjugated anti-human Fc detection; 1-23/WT mutant. On the procedure: as §1
The target of assay [6] is T1, human CCR6. In words: FACS binding assay on hCCR6 L1.2 cells, PE-conjugated anti-human Fc detection; 1-21/3-3 mutant. The procedure: as §1

The EC50 is the concentration giving half of the maximal effect.

B1: hAB6 mutant 1-21/WT (antibody, V domains shown)
VH: EVQLVESGGGLVQPGGSLRLSCAASGFPFSDYYLYWVRQAPGKGLEWVAYITNGVGRTYYSDSVKGRFTISRDNAKNTLYLQMNSLRDEDTAVYYCTSPPLGGAWFGYWGQGTLVTVS
VL: DIVMTQSPLSLPVTPGEPASISCRSSQSIVHSNGNTYLEWYLQKPGQSPRLLIYKVSKRFSGVPDRFSGSGSGTDFTLKISRVEAEDVGVYYCFQGSHVPLTFGQGTKLEIKR
notes: IgG1 format
For B1, the EC50 in assay [1] amounted to 0.46 nM.

B2: humanized AB6 mAb (antibody, V domains shown)
VH: EVQLVESGGGLVQPGGSLRLSCAASGFPFSDYYLYWVRQAPGKGLEWVAYITNGVGRTYYSDSVKGRFTISRDNAKNTLYLQMNSLRDEDTAVYYCTSPPLGGAWFAYWGQGTLVTVS
VL: DIVMTQSPLSLPVTPGEPASISCRSSQSIVHSNGNTYLEWYLQKPGQSPRLLIYKVSKRFSGVPDRFSGSGSGTDFTLKISRVEAEDVGVYYCFQGSHVPLTFGQGTKLEIKR
notes: also called hAB6; hAB6-IgG1
In assay [2], B2 came in with a half-maximal effective concentration (EC50) of 3.4 nM.

B3: hAB6 mutant 1-23/3-3 (antibody, V domains shown)
VH: EVQLVESGGGLVQPGGSLRLSCVASGFPFSDYYLYWVRQAPGKGLEWVAYITNGVGRTYYSDSVKGRFTISRDNAKNTLYLQMNSLRDEDTAVYYCTSPPLGGAWFGYWGQGTLVTVS
VL: DIVMTQSPLSLPVTPGEPASISCRSSRSIVHSNGNTYLEWYLQKPGQSPRLLIYKVSKRFSGVPDRFSGSGSGTDFTLKISRVEAEDVGVYYCFQGSHVPLTFGQGTKLEIKR
notes: IgG1 format
Turning to B3, the concentration for a half-maximal effect (EC50) in assay [3] is 1.2 nM.

B4: hAB6 mutant WT/3-3 (antibody, V domains shown)
VH: EVQLVESGGGLVQPGGSLRLSCAASGFPFSDYYLYWVRQAPGKGLEWVAYITNGVGRTYYSDSVKGRFTISRDNAKNTLYLQMNSLRDEDTAVYYCTSPPLGGAWFAYWGQGTLVTVS
VL: DIVMTQSPLSLPVTPGEPASISCRSSRSIVHSNGNTYLEWYLQKPGQSPRLLIYKVSKRFSGVPDRFSGSGSGTDFTLKISRVEAEDVGVYYCFQGSHVPLTFGQGTKLEIKR
notes: IgG1 format
Molecule B4 showed an EC50 in assay [4] of 3.2 nM.

B5: hAB6 mutant 1-23/WT (antibody, V domains shown)
VH: EVQLVESGGGLVQPGGSLRLSCVASGFPFSDYYLYWVRQAPGKGLEWVAYITNGVGRTYYSDSVKGRFTISRDNAKNTLYLQMNSLRDEDTAVYYCTSPPLGGAWFGYWGQGTLVTVS
VL: DIVMTQSPLSLPVTPGEPASISCRSSQSIVHSNGNTYLEWYLQKPGQSPRLLIYKVSKRFSGVPDRFSGSGSGTDFTLKISRVEAEDVGVYYCFQGSHVPLTFGQGTKLEIKR
notes: IgG1 format
On to B5, for which the EC50 in assay [5] was determined as 0.39 nM.

B6: hAB6 mutant 1-21/3-3 (antibody, V domains shown)
VH: EVQLVESGGGLVQPGGSLRLSCAASGFPFSDYYLYWVRQAPGKGLEWVAYITNGVGRTYYSDSVKGRFTISRDNAKNTLYLQMNSLRDEDTAVYYCTSPPLGGAWFGYWGQGTLVTVS
VL: DIVMTQSPLSLPVTPGEPASISCRSSRSIVHSNGNTYLEWYLQKPGQSPRLLIYKVSKRFSGVPDRFSGSGSGTDFTLKISRVEAEDVGVYYCFQGSHVPLTFGQGTKLEIKR
notes: IgG1 format
Molecule B6 had a 50% effective concentration (EC50) in assay [6] of 0.41 nM.
